B2: eIF2Bε (ε-subunit of yeast eIF2B, untagged) (natural protein, S. cerevisiae, UniProt P32501 1-712, looked up)
chain: MAGKKGQKKSGLGNHGKNSDMDVEDRLQAVVLTDSYETRFMPLTAVKPRCLLPLANVPLIEYTLEFLAKAGVHEVFLICSSHANQINDYIENSKWNLPWSPFKITTIMSPEARCTGDVMRDLDNRGIITGDFILVSGDVLTNIDFSKMLEFHKKMHLQDKDHISTMCLSKASTYPKTRTIEPAAFVLDKSTSRCIYYQDLPLPSSREKTSIQIDPELLDNVDEFVIRNDLIDCRIDICTSHVPLIFQENFDYQSLRTDFVKGVISSDILGKHIYAYLTDEYAVRVESWQTYDTISQDFLGRWCYPLVLDSNIQDDQTYSYESRHIYKEKDVVLAQSCKIGKCTAIGSGTKIGEGTKIENSVIGRNCQIGENIRIKNSFIWDDCIIGNNSIIDHSLIASNATLGSNVRLNDGCIIGFNVKIDDNMDLDRNTKISASPLKNAGSRMYDNESNEQFDQDLDDQTLAVSIVGDKGVGYIYESEVSDDEDSSTEACKEINTLSNQLDELYLSDDSISSATKKTKKRRTMSVNSIYTDREEIDSEFEDEDFEKEGIATVERAMENNHDLDTALLELNTLRMSMNVTYHEVRIATITALLRRVYHFIATQTLGPKDAVVKVFNQWGLLFKRQAFDEEEYIDLMNIIMEKIVEQSFDKPDLILFSALVSLYDNDIIEEDVIYKWWDNVSTDPRYDEVKKLTVKWVEWLQNADEESSSEEE
notes: eIF2B epsilon subunit (GCD6), S. cerevisiae; Subunit of the purified eIF2B complexes, written alone for the subunit pairs; also called eIF2B ε-subunit; ε/GCD6
B4: eIF2Bδ (δ-subunit of yeast eIF2B) (natural protein, S. cerevisiae, UniProt P12754 1-651, looked up)
chain: MSESEAKSRSATPPSKAKQATPTTTAAANGEKKLTNKELKELKKQEKAAKRAAMKQANGISIEQQQQQAQMKKEKKQLQREQQQKREQKQKNANKKKQNERNVKKSTLFGHLETTEERRATILALTSAVSSPKTSRITAAGLMVPVVASALSGSNVLTASSLMPVGPNASSTVSASAPASTTTTLPASSAALSAGTSSASTNTPTAIQQEIASSNASDVAKTLASISLEAGEFNVIPGISSVIPTVLEQSFDNSSLISSVKELLLNKDLIHPSILLLTSHLAHYKIVGSIPRCIAMLEVFQIVIKDYQTPKGTTLSRNLTSYLSHQIDLLKKARPLSVTMGNAIRWLKQEISLIDPSTPDKAAKKDLCEKIGQFAKEKIELADQLIIDNASTQIEESTTIVTYGSSKVLTELLLHNAISLKKNIKVIVVDSRPLFEGRKMAETLRNAGVNVMYALITSLDTIFNMDVDYVFLGAHSILSNGFLYSRAGTAMLAMSAKRRNIPVLVCCESLKFSQRVQLDSVTFNELADPNDLVNIDYENPVERRGNKGALLNQFIKERKFEKKKLAMENKPKGNKIGGKKGSEGESKDASNEEDSNSKNILDGWQELPSLNIVNILYDLTPPEYIKKVITEFGALPPSSVPVILREYKGSA
notes: eIF2B delta subunit (GCD2), S. cerevisiae; Subunit of the purified eIF2B complexes, written alone for the subunit pairs; also called eIF2B δ-subunit; δ/Gcd2

Columns and labels:
[1] = biological target: yeast FLAG-tagged eIF2B complex (five subunits α–ε; decamer) (S. cerevisiae) (UniProt P14741); assay: native MS; eIF2-eIF2B preparations (purified at low ionic strength, or formed with phosphorylated eIF2 on anti-FLAG resin) exchanged into 500 mM ammonium acetate
[2] = biological target: yeast FLAG-tagged eIF2B complex (five subunits α–ε; decamer) (S. cerevisiae) (UniProt P14741); assay: native MS; FLAG-purified five-subunit eIF2B in 500 mM ammonium acetate; high collision energy for dissociation; decamer = two copies of each of five subunits
[3] = biological target: T1, eIF2Bγ, FLAG-tagged (γ-subunit of yeast eIF2B) (S. cerevisiae, UniProt P09032 1-578); assay: label-free quantitative proteomics (iBAQ) of the purified complex; eIF2-eIF2B complex purified after phosphorylation of eIF2, trypsin digest, nanoLC-MS/MS, iBAQ intensities compared; eIF2B subunits relative to FLAG-tagged γ (set to 1), eIF2 subunits relative to α; details: both partners purified
T1 construct: eIF2B gamma subunit (GCD1), S. cerevisiae; Bait of all eIF2B complex purifications; also called GCD1-FLAG2-His6; source: S. cerevisiae strains overexpressing eIF2B subunits, purified (anti-FLAG resin, FLAG peptide elution); not shown: FLAG2, C-terminal, kept
T1 sequence (looked up): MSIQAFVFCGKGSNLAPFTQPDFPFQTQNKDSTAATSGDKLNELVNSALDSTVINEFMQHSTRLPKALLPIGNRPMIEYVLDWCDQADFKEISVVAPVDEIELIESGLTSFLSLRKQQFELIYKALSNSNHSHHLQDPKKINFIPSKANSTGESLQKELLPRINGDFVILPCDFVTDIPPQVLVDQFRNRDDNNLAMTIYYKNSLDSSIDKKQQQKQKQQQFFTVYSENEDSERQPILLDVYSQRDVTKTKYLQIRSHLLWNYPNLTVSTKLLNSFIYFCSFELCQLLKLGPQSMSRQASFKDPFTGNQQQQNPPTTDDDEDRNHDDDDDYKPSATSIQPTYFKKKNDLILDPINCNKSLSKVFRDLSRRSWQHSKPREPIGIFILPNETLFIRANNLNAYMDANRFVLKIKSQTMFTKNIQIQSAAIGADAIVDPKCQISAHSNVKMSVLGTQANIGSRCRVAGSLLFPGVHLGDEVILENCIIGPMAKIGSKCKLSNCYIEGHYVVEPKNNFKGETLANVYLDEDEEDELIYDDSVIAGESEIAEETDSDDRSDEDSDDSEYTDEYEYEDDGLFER

[4] = biological target: B2; assay: cross-linking; BS3-d0/d4 (1:1) added to purified complexes (eIF2:eIF2B, four-subunit eIF2B, eIF2Bγε core), 30 min at 26 °C, trypsin digest, nanoLC-MS/MS, MassMatrix search; the text does not tell which cross-link came from which complex; details: both partners purified
[5] = biological target: B4; assay: as above; details: both partners purified
[6] = biological target: T1, eIF2Bγ, FLAG-tagged (γ-subunit of yeast …); assay: as above; details: both partners purified
[7] = biological target: eIF2α phosphorylated at Ser51 (subunit of phosphorylated eIF2) (S. cerevisiae) (UniProt P20459); assay: label-free quantitative proteomics (iBAQ) of the purified complex; eIF2-eIF2B complex purified after phosphorylation of eIF2, trypsin digest, nanoLC-MS/MS, iBAQ intensities compared; eIF2B subunits relative to FLAG-tagged γ (set to 1), eIF2 subunits relative to α

## yeast FLAG-tagged eIF2B complex (five subunits α–ε; decamer), P14741 1-305; P32502 1-381; P09032 1-578; P12754 1-651; P32501 1-712
[1]
  stoichiometry N: 10
[2]
  stoichiometry N: 10

B1: eIF2Bβ (β-subunit of yeast eIF2B) (natural protein, S. cerevisiae, UniProt P32502 1-381, looked up)
chain: MSSQAFTSVHPNAATSDVNVTIDTFVAKLKRRQVQGSYAIALETLQLLMRFISAARWNHVNDLIEQIRDLGNSLEKAHPTAFSCGNVIRRILAVLRDEVEEDTMSTTVTSTSVAEPLISSMFNLLQKPEQPHQNRKNSSGSSSMKTKTDYRQVAIQGIKDLIDEIKNIDEGIQQIAIDLIHDHEILLTPTPDSKTVLKFLITARERSNRTFTVLVTEGFPNNTKNAHEFAKKLAQHNIETLVVPDSAVFALMSRVGKVIIGTKAVFVNGGTISSNSGVSSVCECAREFRTPVFAVAGLYKLSPLYPFDVEKFVEFGGSQRILPRMDPRKRLDTVNQITDYVPPENIDIYITNVGGFNPSFIYRIAWDNYKQIDVHLDKNKA
notes: eIF2B beta subunit (GCD7), S. cerevisiae; Subunit of the purified eIF2B complexes, written alone for the subunit pairs; also called eIF2B β-subunit; β/Gcd7
[3]
  stoichiometry N: 1.4
[4]
  binding result: binds
[5]
  binding result: binds

## B2
[3]
  stoichiometry N: 0.76

B3: eIF2γ, His-tagged (γ-subunit of yeast eIF2) (natural protein, S. cerevisiae, UniProt P32481 1-527, looked up)
chain: MSDLQDQEPSIIINGNLEPVGEPDIVEETEVVAQETQETQDADKPKKKVAFTGLEEDGETEEEKRKREFEEGGGLPEQPLNPDFSKLNPLSAEIINRQATINIGTIGHVAHGKSTVVRAISGVQTVRFKDELERNITIKLGYANAKIYKCQEPTCPEPDCYRSFKSDKEISPKCQRPGCPGRYKLVRHVSFVDCPGHDILMSTMLSGAAVMDAALLLIAGNESCPQPQTSEHLAAIEIMKLKHVIILQNKVDLMREESALEHQKSILKFIRGTIADGAPIVPISAQLKYNIDAVNEFIVKTIPVPPRDFMISPRLIVIRSFDVNKPGAEIEDLKGGVAGGSILNGVFKLGDEIEIRPGIVTKDDKGKIQCKPIFSNIVSLFAEQNDLKFAVPGGLIGVGTKVDPTLCRADRLVGQVVGAKGHLPNIYTDIEINYFLLRRLLGVKTDGQKQAKVRKLEPNEVLMVNIGSTATGARVVAVKADMARLQLTSPACTEINEKIALSRRIEKHWRLIGWATIKKGTTLEPIA
notes: eIF2 gamma subunit (GCD11), S. cerevisiae; also called GCD11-His6; source: S. cerevisiae strain GP3511 co-overexpressing all three eIF2 subunits, purified (Ni-chelate, heparin-Sepharose); not shown: His6, C-terminal, kept
[5]
  binding result: binds
[6]
  binding result: binds
[7]
  stoichiometry N: 1.67

## B4
[3]
  stoichiometry N: 0.95
[4]
  binding result: binds

B5: eIF2Bα (α-subunit of yeast eIF2B) (natural protein, S. cerevisiae, UniProt P14741 1-305, looked up)
chain: MSEFNITETYLRFLEEDTEMTMPIAAIEALVTLLRIKTPETAAEMINTIKSSTEELIKSIPNSVSLRAGCDIFMRFVLRNLHLYGDWENCKQHLIENGQLFVSRAKKSRNKIAEIGVDFIADDDIILVHGYSRAVFSLLNHAANKFIRFRCVVTESRPSKQGNQLYTLLEQKGIPVTLIVDSAVGAVIDKVDKVFVGAEGVAESGGIINLVGTYSVGVLAHNARKPFYVVTESHKFVRMFPLSSDDLPMAGPPLDFTRRTDDLEDALRGPTIDYTAQEYITALITDLGVLTPSAVSEELIKMWYD
notes: eIF2B alpha subunit (GCN3), S. cerevisiae; Subunit of the purified eIF2B complex, written alone for the subunit pairs; also called eIF2B α-subunit; GCN3
[3]
  stoichiometry N: 1.12

— publication PMC4046112, “eIF2B is a decameric guanine nucleotide exchange factor with a γ2ε2 tetrameric core” (Nature Communications, 2014)
